Results on one molecule are retold here after patent US20170260508A1.

The target of the test is chimeric LILRB2-PILRβ receptor (aa 24-458 of hLILRB2) on mouse T cell hybridoma NFAT-GFP reporter cells (human), Q8N423. Description: cell-based or functional assay.
Sequence of chimeric LILRB2-PILRβ receptor (aa 24-458 of hLILRB2) on mouse T cell hybridoma NFAT-GFP reporter cells (human), Q8N423 (Q8N423 other isoform, or with tags, fused parts or gaps mutant limits assumed, form in doubt): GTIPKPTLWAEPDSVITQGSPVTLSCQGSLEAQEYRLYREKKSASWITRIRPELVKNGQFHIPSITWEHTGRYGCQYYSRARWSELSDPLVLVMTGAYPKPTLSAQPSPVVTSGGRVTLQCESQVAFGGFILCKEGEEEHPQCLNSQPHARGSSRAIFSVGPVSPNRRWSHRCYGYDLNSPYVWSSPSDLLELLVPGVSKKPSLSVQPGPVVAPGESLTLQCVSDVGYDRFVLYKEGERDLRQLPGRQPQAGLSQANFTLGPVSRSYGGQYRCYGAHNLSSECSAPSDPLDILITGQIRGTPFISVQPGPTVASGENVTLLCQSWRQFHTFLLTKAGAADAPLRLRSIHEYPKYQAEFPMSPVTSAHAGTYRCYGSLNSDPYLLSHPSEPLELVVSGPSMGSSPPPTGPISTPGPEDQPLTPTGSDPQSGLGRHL

B1: Angptl2-FLAG, full-length human Angptl2 secreted from transfected 293T cells, Q9UKU9 23-493 (ligand, not shown: small tags and cut ends)
chain: QEDGFEGTEEGSPREFIYLNRYKRAGESQDKCTYTFIVPQQRVTGAICVNSKEPEVLLENRVHKQELELLNNELLKQKRQIETLQQLVEVDGGIVSEVKLLRKESRNMNSRVTQLYMQLLHEIIRKRDNALELSQLENRILNQTADMLQLASKYKDLEHKYQHLATLAHNQSEIIAQLEEHCQRVPSARPVPQPPPAAPPRVYQPPTYNRIINQISTNEIQSDQNLKVLPPPLPTMPTLTSLPSSTDKPSGPWRDCLQALEDGHDTSSIYLVKPENTNRLMQVWCDQRHDPGGWTVIQRRLDGSVNFFRNWETYKQGFGNIDGEYWLGLENIYWLTNQGNYKLLVTMEDWSGRKVFAEYASFRLEPESEYYKLRLGRYHGNAGDSFTWHNGKQFTTLDRDHDVYTGNCAHYQKGGWWYNACAHSNLNGVWYRGGHYRSRYQDGVYWAEFRGGSYSLKKVVMMIRPNPNTFH
B1 showed a GFP expression of LILRB2 reporter cells after 24 h with Angptl2 conditioned medium (2 µg/ml); control: mock medium of 18.9%.
